This assay has as its target T1, Hexa-histidine-tagged MAGE-A4 (human (open reading frame amplified …, UniProt P43358 1-317)).
T1 construct: MAGE-A4, full-length recombinant; the MAGE-A4 open reading frame was PCR amplified from H1299 genomic DNA; Expressed from pRSET; also called His-MAGE-A4; 6 × His–MAGE-A4; source: E. coli BL21 (DE3), purified
T1 sequence (looked up): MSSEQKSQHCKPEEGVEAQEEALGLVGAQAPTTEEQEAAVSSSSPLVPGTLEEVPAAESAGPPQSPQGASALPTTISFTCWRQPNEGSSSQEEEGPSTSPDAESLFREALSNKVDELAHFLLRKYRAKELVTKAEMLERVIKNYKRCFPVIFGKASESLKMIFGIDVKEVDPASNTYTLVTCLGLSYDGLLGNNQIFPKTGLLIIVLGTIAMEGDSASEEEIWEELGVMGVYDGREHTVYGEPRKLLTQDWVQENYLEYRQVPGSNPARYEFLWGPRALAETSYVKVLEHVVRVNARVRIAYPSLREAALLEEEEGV
Kind of assay: pull-down; recombinant 6 × His–MAGE-A4 (1 μg) incubated in 1 ml CSK+1% BSA with GST or GST–RAD18 (0.3 μg), 2 h at 4 °C; glutathione sepharose beads; washed three times in CSK+1% BSA; immunoblot. Conditions: both partners purified. (Immunoblotting shows a protein as a band on a membrane.)

B1: GST–RAD18 267-402 (domain or fragment, UniProt Q9NS91 267-402, looked up)
chain: IQGNKQQLIKRHQEFVHMYNAQCDALHPKSAAEIVREIENIEKTRMRLEASKLNESVMVFTKDQTEKEIDEIHSKYRKKHKSEFQLLVDQARKGYKKIAGMSQKTVTITKEDESTEKLSSVCMGQEDNMTSVTNHF
notes: Expressed from pGEX2T; source: E. coli BL21 (DE3), purified
B1: the binding result is recorded as “binds”.

Source of the values: PMC4935975, “A neomorphic cancer cell-specific role of MAGE-A4 in trans-lesion synthesis” (Nature Communications, 2016).
